One assay has as its target T1, canine PD-L1-His (canine).
T1 construct: extracellular domain; Made in Expi293F cells; also called cPD-L1-His
As to the kind of experiment: SPR (Biacore X100), cPD-L1-His captured by anti-histidine antibody on a CM5 chip, antibody as analyte. On the procedure:
Using a biomolecular interaction analyzer (Biacore X100), the binding avidities to cPD-L1-His of rat anti-bovine PD-L1 monoclonal antibody 4G12 and rat-canine chimeric anti-PD-L1 antibody c4G12 were assessed. Briefly, anti-histidine antibody was fixed on CM5 censor chip, followed by capturing of cPD-L1-His. Subsequently, monoclonal antibodies were added as analyte to observe specific binding. […] Further, the binding avidities of canine PD-1-Ig and CD80-Ig to cPD-L1-His were measured in the same manner and found to be clearly lower than that of rat-canine chimeric anti-PD-L1 antibody c4G12 (Table 1).

Assay [1] addresses T2, canine PD-L1 on cPD-L1-EGFP expressing COS-7 cells (canine, UniProt E2RKZ5 19-289).
T2 construct: Transient expression in COS-7 cells; also called canine PD-L1 expressing cells; cPD-L1-EGFP expressing cell
T2 sequence: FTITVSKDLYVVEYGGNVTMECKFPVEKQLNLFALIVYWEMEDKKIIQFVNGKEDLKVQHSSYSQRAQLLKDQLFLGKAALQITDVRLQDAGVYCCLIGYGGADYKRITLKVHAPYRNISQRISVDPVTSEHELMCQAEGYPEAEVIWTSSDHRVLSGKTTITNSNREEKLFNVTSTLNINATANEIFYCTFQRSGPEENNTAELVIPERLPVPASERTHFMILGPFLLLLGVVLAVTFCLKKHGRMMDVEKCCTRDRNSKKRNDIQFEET
In words: flow cytometry (section 2.5). On the procedure:
In order to identify rat anti-bovine PD-L1 monoclonal antibody showing cross-reactivity with canine PD-L1, flow cytometry was performed using the anti-bovine PD-L1 antibody prepared in 2.1 above. The anti-bovine PD-L1 antibody (10 μg/ml) was reacted with 2×10⁵-1×10⁶ cells at room temperature for 30 min. After washing, the anti-bovine PD-L1 antibody was detected with allophycocyanine-labeled anti-rat Ig goat antibody (Beckman Coulter). FACS Verse (Becton, Dickinson and Company) was used for analysis. As negative controls, rat IgG2a (κ) isotype control (BD Biosciences), rat IgG1 (κ) isotype control (BD Biosciences) and rat IgM (κ) isotype control (BD Biosciences) were used. For every washing operation and dilution of antibodies, 10% inactivated goat serum-supplemented PBS was used (MaekawaN, Konnai S, Ikebuchi R, Okagawa T, Adachi M, Takagi S, KagawaY, Nakajima C, Suzuki Y, Murata S, Ohashi K. PLoS One. 2014 Jun. 10; 9(6):e98415 which is an article describing the use of three bovine PD-L1 monoclonal antibodies: 4G12 (Rat IgG2a (κ)), 5A2 (Rat IgG1 (κ)) and 6G7 (Rat IgM (κ)).

Assay [2] addresses T2, canine PD-L1 on cPD-L1-EGFP expressing …. As to the kind of experiment: flow cytometry on canine PD-L1 expressing cells.
The next assay has as its target T3, bovine FcγRI-His (bovine).
T3 construct: extracellular domain; Made in Expi293F cells; also called soluble bovine FcγRI
In words: ELISA: antibody immobilized at 1.56 to 50 nM, bovine FcγRI-His added at 10 µg/ml, detection with anti-polyhistidine antibody and HRP anti-mouse IgG [A]. On the procedure:
(§1) Subsequently, each well was washed with 200 μl of 0.05% Tween 20-supplemented PBS (PBS-T) five times, followed by blocking with SuperBlock (PBS) Blocking Buffer (Thermo Fisher Scientific) at 37° C. for 30 min. Each well was washed again in the same manner. Then, bovine FcγRI-His, FcγRII-His, FcγRIII-His or Fcγ2R-His was added to each well at a final concentration of 10 μg/ml and reacted at 37° C. for 1 hr. After washing, anti-polyhistidine tag mouse monoclonal antibody (Abcam) was reacted at 37° C. for 30 min. Subsequently, each well was washed, and horseradish peroxidase-labeled anti-mouse IgG goat polyclonal antibody (MP Biomedicals) was reacted at 37° C. for 30 min. Each well was washed again, and then TMB One Component Substrate (Bethyl) was added for coloring. Thereafter, the enzyme reaction was terminated with 0.18 M dilute sulfuric acid, and absorbance (450 nm) was measured with Microplate Reader MTP-900 (Corona Electric).

The target of a further assay is T4, bovine FcγRII-His (bovine, UniProt Q28110 43-225).
T4 construct: extracellular domain; Made in Expi293F cells; also called soluble bovine FcγRII
T4 sequence: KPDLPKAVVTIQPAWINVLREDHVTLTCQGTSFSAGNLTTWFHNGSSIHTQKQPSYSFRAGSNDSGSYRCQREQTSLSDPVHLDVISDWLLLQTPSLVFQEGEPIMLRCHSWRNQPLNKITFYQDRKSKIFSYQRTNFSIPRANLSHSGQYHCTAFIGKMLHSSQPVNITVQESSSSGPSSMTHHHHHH
As to the kind of experiment: ELISA: antibody immobilized at 1.56 to 50 nM, bovine FcγRII-His added at 10 µg/ml [B]. On the procedure: as §1

A further assay addresses T5, bovine PD-1-His (bovine).
T5 construct: extracellular domain; Made in Expi293F cells; also called soluble bovine PD-1-His; PD-1 protein
As to the kind of experiment: SPR (Biacore X100), bovine PD-1-His immobilised on a CM5 chip, antibody as analyte, single kinetics, 3 repeats. On the procedure:
The binding avidities to bovine PD-1 of rat anti-bovine PD-1 antibody 5D2 and rat-bovine chimeric anti-bovine PD-1 antibody ch5D2 were measured by surface plasmon resonance using a biomolecular interaction analyzer (Biacore X100). Briefly, bovine PD-1-His (described above) was immobilized on a CM5 sensor chip (GE Healthcare) as a ligand. Subsequently, rat anti-bovine PD-1 antibody 5D2 or rat-bovine chimeric anti-bovine PD-1 antibody ch5D2 was reacted as an analyte, followed by single kinetics analysis. The experiment was repeated 3 times under the same conditions. Binding constant (kd value) and dissociation constant (ka value) were determined in each experiment, and binding avidity (KD value) was obtained.

Experimental findings from patent US20250066483A1 (FUSO PHARMACEUTICAL INDUSTRIES, published 2025) are described below.

B1: rat anti-bovine PD-L1 monoclonal antibody 4G12 (antibody, V domains shown)
VH: QVQLQQSGAELVKPGSSVKISCKASGYTFTSNFMHWVKQQPGNGLEWIGWIYPEYGNTKYNQKFDGKATLTADKSSSTAYMQLSSLTSEDSAVYFCASEEAVISLVYWGQGTLVTVSS
VL: DIAITQSPSSVAVSVGETVTLSCKSSQSLLYSENQKDYLGWYQQKPGQTPKPLIYWATNRHTGVPDRFTGSGSGTDFTLIISSVQAEDLADYYCGQYLVYPFTFGPGTKLELK
B1 gave a kon with canine PD-L1-His of 2.42e+06 M⁻¹ s⁻¹. The binding result in assay [1] is listed as “binds”.

B2: rat-canine chimeric anti-PD-L1 antibody c4G12 (antibody, V domains shown)
VH: B1 VH
VL: DIAITQSPSSVAVSVGETVTLSCKSSQSLLYSENQKDYLGWYQQKPGQTPKPLIYWATNRHTGVPDRFTGSGSGTDFTLIISSVQAEDLADYYCGQYLVYPFTFGPGTKLELKQ
notes: 4G12 variable regions on canine IgG-D (equivalent to human IgG4) heavy and canine lambda light constant regions
B2 displayed a kon with canine PD-L1-His of 3.14e+06 M⁻¹ s⁻¹. Besides, the binding result in assay [2] is reported as “binds”.

B3: rat-bovine chimeric anti-bovine PD-1 antibody ch5D2 having wild-type bovine IgG1 (IgG1 WT) (antibody)
heavy: QVQLKETGPGLVQPTQTLSITCTVSGFSLTSYYIQWVRQTPGKGLEWMGFIRSGGSTEYNSEFKSRLSINRDTSKNQVFLKMNSLKTEDTGVYYCARTSSGYEGGFDYWGQGVMVTVSSASTTAPKVYPLSSCCGDKSSSTVTLGCLVSSYMPEPVTVTWNSGALKSGVHTFPAVLQSSGLYSLSSMVTVPGSTSGQTFTCNVAHPASSTKVDKAVDPTCKPSPCDCCPPPELPGGPSVFIFPPKPKDTLTISGTPEVTCVVVDVGHDDPEVKFSWFVDDVEVNTATTKPREEQFNSTYRVVSALRIQHQDWTGGKEFKCKVHNEGLPAPIVRTISRTKGPAREPQVYVLAPPQEELSKSTVSLTCMVTSFYPDYIAVEWQRNGQPESEDKYGTTPPQLDADSSYFLYSKLRVDRNSWQEGDTYTCVVMHEALHNHYTQKSTSKSAGK
light: DVVLTQTPVSLSVTLGDQASISCRSSQSLEYSDGYTYLEWYLQKPGQSPQLLIYGVSNRFSGVPDRFIGSGSGTDFTLKISRVEPEDLGVYYCFQATHDPDTFGAGTKLELKQPKSPPSVTLFPPSTEELNGNKATLVCLISDFYPGSVTVVWKADGSTITRNVETTRASKQSNSKYAASSYLSLTSSDWKSKGSYSCEVTHEGSTVTKTVKPSECS
notes: Made in Expi293F cells; also called ch5D2 IgG1 WT
As for B3, the 50% effective concentration (EC50 (read off the curve)) with bovine FcγRI-His was ~9 nM.

B4: rat-bovine chimeric anti-bovine PD-1 antibody ch5D2 (mutated bovine IgG1, IgG1 ADCC-) (antibody)
heavy: QVQLKETGPGLVQPTQTLSITCTVSGFSLTSYYIQWVRQTPGKGLEWMGFIRSGGSTEYNSEFKSRLSINRDTSKNQVFLKMNSLKTEDTGVYYCARTSSGYEGGFDYWGQGVMVTVSSASTTAPKVYPLSSCCGDKSSSTVTLGCLVSSYMPEPVTVTWNSGALKSGVHTFPAVLQSSGLYSLSSMVTVPGSTSGQTFTCNVAHPASSTKVDKAVDPTCKPSPCDCCPPPPVAGPSVFIFPPKPKDTLTISGTPEVTCVVVDVGHDDPEVKFSWFVDDVEVNTATTKPREEQFNSTYRVVSALRIQHQDWTGGKEFKCKVHNEGLPSSIVRTISRTKGPAREPQVYVLAPPQEELSKSTVSLTCMVTSFYPDYIAVEWQRNGQPESEDKYGTTPPQLDADSSYFLYSKLRVDRNSWQEGDTYTCVVMHEALHNHYTQKSTSKSAGK
light: B3 light
notes: 5D2 variable regions on bovine IgG1 (modified from X62916); also called ch5D2 IgG1 ADCC-
For B4, the binding result with bovine FcγRII-His is on record as “no binding (tested: 50 nM)”. Also, in the assay with bovine PD-1-His, the dissociation constant Kd stood at 10.5 nM, the dissociation rate constant (koff) was 0.000216 s⁻¹ and the kon was determined as 20700 M⁻¹ s⁻¹.
